{
  "source": "patent US20220112558",
  "proteins": {"B1": {"name": "ARAF mutant (ARAF-S214P), full-length, with two FLAG tags and two STREP tags, expressed in HEK293T cells (protein)", "chain": "DYKDDDDKDYKDDDDKWSHPQFEKWSHPQFEKMEPPRGPPANGAEPSRAVGTVKVYLPNKQRTVVTVRDGMSVYDSLDKALKVRGLNQDCCVVYRLIKGRKTVTAWDTAIAPLDGEELIVEVLEDVPLTMHNFVRKTFFSLAFCDFCLKFLFHGFRCQTCGYKFHQHCSSKVPTVCVDMSTNRQQFYHSVQDLSGGSRQHEAPSNRPLNELLTPQGPSPRTQHCDPEHFPFPAPANAPLQRIRSTPTPNVHMVSTTAPMDSNLIQLTGQSFSTDAAGSRGGSDGTPRGSPSPASVSSGRKSPHSKSPAEQRERKSLADDKKKVKNLGYRDSGYYWEVPPSEVQLLKRIGTGSFGTVFRGRWHGDVAVKVLKVSQPTAEQAQAFKNEMQVLRKTRHVNILLFMGFMTRPGFAIITQWCEGSSLYHHLHVADTRFDMVQLIDVARQTAQGMDYLHAKNIIHRDLKSNNIFLHEGLTVKIGDFGLATVKTRWSGAQPLEQPSGSVLWMAAEVIRMQDPNPYSFQSDVYAYGVVLYELMTGSLPYSHIGCRDQIIFMVGRGYLSPDLSKISSNCPKAMRRLLSDCLKFQREERPLFPQILATIELLQRSLPKIERSASEPSLHRTQADELPACLLSAARLVP"}},
  "target": "14-3-3 proteins",
  "data": [
    {"protein": "B1", "values": [
      {"measurement": "activation of ERK1/2, as measured by increased phosphorylation", "value": "significantly greater activation of ERK1/2, as measured by increased phosphorylation, compared with HEK293T cells expressing wildtype (WT) ARAF"}
    ]}
  ]
}
